For one substance, Kd results are on record in PMC6713926.

Several values for one entry are separate records, joined by “and”; a condition that tells them apart may be missing. Equal values may be shown once.

The test deals with Biotinylated C3b (human) (UniProt P01024). Put plainly: BLI; biotinylated C3b on streptavidin sensors; FPht variants at 100 to 1.56 μg/mL, 60 s steps; 30°C; 20 mM MES pH 6.0, 100 mM NaCl, 0.05% Tween, 1 mg/mL BSA; steady state 1:1 fit (for WT also kinetic analysis). In general terms: BLI is a label-free optical method that tracks binding on a fibre tip over time.
Biotinylated C3b (human), sequence (P01024 23-667, chain 1 of 2): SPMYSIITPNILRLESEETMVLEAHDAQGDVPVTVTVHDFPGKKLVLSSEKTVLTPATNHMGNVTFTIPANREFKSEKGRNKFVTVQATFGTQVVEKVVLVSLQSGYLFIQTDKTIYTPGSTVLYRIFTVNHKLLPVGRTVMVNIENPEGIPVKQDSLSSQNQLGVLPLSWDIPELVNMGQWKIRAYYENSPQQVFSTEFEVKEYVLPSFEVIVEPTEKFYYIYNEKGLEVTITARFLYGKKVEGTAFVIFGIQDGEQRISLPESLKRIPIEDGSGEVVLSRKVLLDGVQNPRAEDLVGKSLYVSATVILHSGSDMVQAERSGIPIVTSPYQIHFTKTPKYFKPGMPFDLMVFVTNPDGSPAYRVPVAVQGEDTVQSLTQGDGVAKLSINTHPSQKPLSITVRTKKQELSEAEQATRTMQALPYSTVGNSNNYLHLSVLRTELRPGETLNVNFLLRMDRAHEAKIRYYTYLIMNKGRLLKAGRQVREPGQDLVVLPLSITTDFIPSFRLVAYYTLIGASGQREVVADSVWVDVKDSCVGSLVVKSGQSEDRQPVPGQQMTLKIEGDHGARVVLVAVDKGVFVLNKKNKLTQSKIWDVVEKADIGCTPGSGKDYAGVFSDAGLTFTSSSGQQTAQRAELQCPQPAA
Biotinylated C3b (human), sequence (P01024 749-1663, chain 2 of 2): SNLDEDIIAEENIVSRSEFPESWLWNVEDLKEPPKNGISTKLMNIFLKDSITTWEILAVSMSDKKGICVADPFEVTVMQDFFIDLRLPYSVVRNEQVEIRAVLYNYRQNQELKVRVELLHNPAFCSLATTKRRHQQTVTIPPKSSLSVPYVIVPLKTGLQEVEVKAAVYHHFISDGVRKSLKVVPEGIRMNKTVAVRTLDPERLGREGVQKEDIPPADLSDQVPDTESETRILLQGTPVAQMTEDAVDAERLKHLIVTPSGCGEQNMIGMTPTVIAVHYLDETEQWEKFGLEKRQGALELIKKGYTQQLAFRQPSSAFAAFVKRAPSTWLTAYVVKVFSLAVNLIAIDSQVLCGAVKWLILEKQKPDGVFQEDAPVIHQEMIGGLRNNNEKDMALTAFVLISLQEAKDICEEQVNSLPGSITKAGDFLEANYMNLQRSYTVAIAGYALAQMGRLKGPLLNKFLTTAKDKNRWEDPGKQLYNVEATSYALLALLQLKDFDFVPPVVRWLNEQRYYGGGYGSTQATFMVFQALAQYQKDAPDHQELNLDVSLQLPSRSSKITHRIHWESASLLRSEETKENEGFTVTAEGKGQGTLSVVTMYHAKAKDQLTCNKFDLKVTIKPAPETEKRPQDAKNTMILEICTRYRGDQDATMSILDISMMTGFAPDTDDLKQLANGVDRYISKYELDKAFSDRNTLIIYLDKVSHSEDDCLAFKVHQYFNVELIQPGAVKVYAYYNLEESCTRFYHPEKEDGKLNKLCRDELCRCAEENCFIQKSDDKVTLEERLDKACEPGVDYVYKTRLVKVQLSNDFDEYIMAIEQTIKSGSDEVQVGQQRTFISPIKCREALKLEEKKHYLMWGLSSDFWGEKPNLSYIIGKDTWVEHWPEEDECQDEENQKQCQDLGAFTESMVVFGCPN

As to “FPht, monomeric FP head-tail protein from co-expression of FPh and FPt (complex)”, the Kd was 320 nM and 350 nM.

Usually Kd stands for the equilibrium constant for the complex coming apart.
